Experiments:
Human SARS-CoV S = Human SARS-CoV S (SARS-CoV, UniProt P59594 14-1190); assay: flow cytometry SVNA: VHH-Fc inhibits S binding to ACE2 on Vero E6 cells
[1] = molecular target: Human SARS-CoV-2_Wuhan S (SmT1) (SARS-CoV-2 (Wuhan), UniProt P0DTC2 14-1208); assay: as above
[2] = molecular target: T1, SARS-CoV-2 S on CHO-S cells (SARS-CoV-2, UniProt P0DTC2 14-1273); assay: flow cytometry, CHO-S cells
T1 construct: whole, on cells

SARS-CoV spike (S) = SARS-CoV spike (S) (SARS-CoV, UniProt P59594 14-1195); assay: ELISA
[3] = molecular target: T2, SARS-CoV-2 S1-NTD (aa16-305) (SARS-CoV-2 Wuhan, UniProt P0DTC2 16-305); assay: ELISA
[4] = molecular target: T3, SARS-CoV-2 S2 (aa686-1208) (Wuhan) (SARS-CoV-2 Wuhan, UniProt P0DTC2 686-1208); assay: ELISA
T3 construct: NRC; FLAG, 6xHis tags

[5] = molecular target: Human SARS-CoV-2_Wuhan S (SmT1) (SARS-CoV-2 (Wuhan), UniProt P0DTC2 14-1208); assay: flow cytometry SVNA, VHH-Fc vs biotin-S binding to Vero E6 ACE2
[6] = molecular target: T4, SARS-CoV-2 spike protein S on live virus, Wuhan (strain SARS-CoV-2/Canada/VIDO-01/2020) (SARS-CoV-2 (Wuhan), UniProt P0DTC2 14-1273); assay: cell-based or functional assay
[7] = molecular target: T4, SARS-CoV-2 spike protein S on live …; assay: cell-based or functional assay; remark: listed apart in the source
[8] = molecular target: T2, SARS-CoV-2 S1-NTD (aa16-305); assay: ELISA, coated antigen, apparent EC50
[9] = molecular target: T5, SARS-CoV-2 S1 (aa16-685) (Wuhan) (SARS-CoV-2 Wuhan, UniProt P0DTC2 16-685); assay: ELISA, coated antigen, apparent EC50
T5 construct: NRC; FLAG, 6xHis tags

[10] = molecular target: T6, SARS-CoV-2 spike trimer S (Wuhan, SmT1) (SARS-CoV-2 Wuhan); assay: ELISA, coated antigen, apparent EC50
T6 construct: extracellular domain

[11] = molecular target: T5, SARS-CoV-2 S1 (aa16-685) (Wuhan); assay: ELISA
[12] = molecular target: S1-Fc (SARS-CoV-2 S1 aa16-685, Wuhan, human IgG1 Fc) (SARS-CoV-2 (Wuhan); human, UniProt P0DTC2 16-685)

B1: NRCoV2-07 VHH-Fc (Fc fusion)
chain: QVQLVQSGGGLVQPGGSLRLSCAASGVTLDYYAIGWFRQAPGKEREAVSCISSNGRRNHYVASVRGRFTISRDNAKSTVYLQMNSLKPEDTAVYYCAAVQDVHGDNYYCTSPNEYNVWGQGTQVTVSS
notes: bivalent VHH-Fc
B1 was tested, and the IC50 (Human SARS-CoV S) was 4.2 nM and the IC50 [1] was 4.7 nM.

B2: NRCoV2-SR13 VHH-Fc (Fc fusion)
chain: EVQLVESGGGLVTTGGSLRLSCATSGSRFGSKHMAWYRQAPGKQRDLVAAISSGGSTHYGSSVKGRFTISRDNAKSTVYLQMNSLNPEDTAVFYCNMGGWDYRSNTYIPGSRSDYWGQGTQVTVSS
notes: bivalent VHH-Fc
With B2 the IC50 (Human SARS-CoV S) was 15 nM and the IC50 [1] was 7.7 nM.

B3: NRCoV2-15 VHH-Fc (Fc fusion)
chain: EVQLVSSGGGLVEAGGSLRLSCIASGSTSGRNTMGWFRQAPGKQREWVAIVSTSGATNYAGSVKGRFTLSRDNAKNAVYLQMNNLKPEDTAVYYCYAAYGGGGDYWGQGTQVTVSS
notes: bivalent VHH-Fc
For B3, the Bmax [2] was 21100, the EC50 [2] was 0.8 nM and the binding result (SARS-CoV spike (S)) was “no binding (tested: 13 nM)”. B3: no binding (tested: 13 nM) [3]; no binding (tested: 13 nM) [4].

B4: NRCoV2-20 VHH-Fc (Fc fusion)
chain: EVQLQQSGGGLVQPGGSLRLSCAASGRTFSNYVVGWFRQAPQAPGKDHEFVAVISGSDTETYYADSVKGRFTISRDNAKNTVYLQMNSLKPEDTAVYYCAADRGMSYYYTRATEYYYWGQGTQVTVSS
notes: bivalent VHH-Fc
B4 gave an IC50 (Human SARS-CoV S) of 10.3 nM and an IC50 [1] of 6.5 nM.

B5: NRCoV2-12 VHH-Fc (Fc fusion)
chain: EVQLQQSGGGLVQAGGSLRLSCAASGRTFRNYVMGWFRQAPQAPGKDHEFVAAISWGGTEIYYADSVKGRFTISRDNAKNTVYLQMNSLKPEDTAVYYCAADRGLSYYYTRTTEYNYWGQGTQVTVSS
notes: bivalent VHH-Fc
B5 was tested, and the IC50 (Human SARS-CoV S) was 3.1 nM and the IC50 [1] was 3.5 nM.

B6: NRCoV2-02 VHH-Fc (Fc fusion)
chain: EVQLVESGGGLVQAGGSLRLSCAASGFTFSNYAMNWVRQAPGKGLEWVSGISGRGDDTRYADSVKGRFTISRDNAKNTLFLQMRSLRPEDTGVYRCTKGPDLYYFGSGYSDRGQGTQVTVSS
notes: bivalent VHH-Fc
With B6 the IC50 [5] was 5 nM, the IC99 [5] was 30 nM and the Imax % [5] was 94%. The MN100 [6] was no more than 0.01 nM and the “LVNA IC50” value [7] was 0.12 nM.

B7: NRCoV2-SR02 VHH-Fc (Fc fusion)
chain: EVQLVDSGGGLVQAGGSLRLSCTASEFTLNYYSIGWFRQSPGKEREGVSCIRYSGGGIDYADSVKGRFTISRDNAKNTVYLTMNSLKPEDTAVYYCAADRLYSRACPTAGGRNYWGQGTQVTVSS
notes: bivalent VHH-Fc
In the case of B7, the IC50 [5] is reported as 5.8 nM, the IC99 [5] is reported as 49.8 nM and the Imax % [5] is reported as 53%. The MN100 [6] was 6.25 nM and the “LVNA IC50” value [7] was 14.1 nM.

B8: NRCoV2-MRed03 VHH-Fc (Fc fusion)
chain: EVQLVESGGGLVQPGGSLRLSCAAIGFTLDYYAIGWFRQAPGKEREGVSCISSSDGSTYYADSVKGRFTISRDNAKNTVYLQMNSLKPEDTAVYYCATDAFATCDSWYAQIAQYDFRGQGTQVTVSS
notes: bivalent
With B8 the EC50 [8] was 0.7 nM, the EC50 [9] was 0.48 nM and the EC50 [10] was 0.2 nM.

B9: NRCoV2-MRed07 VHH-Fc (Fc fusion)
chain: EVQLVESGGGLVQPGGSLTLSCAASGSIGPFNTMGWYRQAPGNQREPAAIITRGGVTNYADSVKGRFTISRDNAKNAVYLQMDSLKPDDTAVYYCYANYGWAIPYWGNGTQVTVSS
notes: bivalent
Work on B9 yielded an EC50 [8] of 0.8 nM, an EC50 [9] of 1.5 nM and an EC50 [10] of 1.2 nM.

B10: NRCoV2-SR01 VHH-Fc (Fc fusion)
chain: EVQLVQSGGGSVQAGGSLRLSCVASGFTFDNYAIGWFRQAPGKEREGVSCISGNGGVTIYADSVKGRFTISRDNAKNLVYLQMNSLKPEDTAVYYCAATGIRSTWSVYGCSRLAGPYDYWGQGTQVTVSS
notes: bivalent VHH-Fc
For B10, the IC50 [5] was 6.6 nM, the IC99 [5] was 56.9 nM and the Imax % [5] was 59%. The MN100 [6] was 6.25 nM and the “LVNA IC50” value [7] was 9.42 nM.

B11: NRCoV2-SR01 VHH-Fc (Fc fusion)
chain: B10 chain
notes: bivalent VHH-Fc
In the case of B11, the IC50 (Human SARS-CoV S) is reported as 5.1 nM and the IC50 [1] is reported as 4.2 nM.

B12: NRCoV2-21 VHH-Fc (Fc fusion)
chain: EVQLVESGGGLVQPGGSLRLSCATSGFTLDYYAIGWFRQAPGKEREWVSCISSGGSTFYVDSVKGRFTISRDNAKDTVYLQMSSLKPDDTAVYYCAADHRGRSLRFGCSSSTTDYLYWGQGTQVTVSS
notes: bivalent VHH-Fc
B12: no binding (tested: 13 nM) (SARS-CoV spike (S)).

B13: NRCoV2-18 VHH-Fc (Fc fusion)
chain: EVQLVESGGGLVQAGGSLRLSCVASGITISGYNMAWWRQTRGKQTERVAFINSGGSTTYSDSVKGRFTISRDNGKNTAYLQMNSLNAEDTADYFCSLHTSHDYWGQGTQVTVSS
notes: bivalent VHH-Fc
In the case of B13, the IC50 (Human SARS-CoV S) is reported as 12.7 nM and the IC50 [1] is reported as 9.1 nM.

B14: NRCoV2-17 VHH-Fc (Fc fusion)
chain: EVQLQQSGGGLVQTGGSLRLSCAAAGSPFSQLAMSWYRQISGKERAWVASISPTGNRSYSKIAKGRFTISRDNAKNTVTLQMTSLKPEDTAAYICQAANVNGGDYWGQGTQVTVSS
notes: bivalent VHH-Fc
B14 was tested, and the Bmax [2] was 19000, the EC50 [2] was 0.4 nM and the binding result (SARS-CoV spike (S)) was “no binding (tested: 13 nM)”. B14: no binding (tested: 13 nM) [3]; no binding (tested: 13 nM) [4].

B15: NRCoV2-MRed11 VHH-Fc (Fc fusion)
chain: EVQLVESGGGLVQAGGSLRLSCAASGFTFSSYAMSWHRQAPGKGLEWVSAINSGGGSTSYADSVKGRFAISRDNAKNTLYLQMNSLKPEDTAVYYCATTISDGSSWSTKSYRGQGTQVTVSS
notes: bivalent VHH-Fc
B15 was tested, and the Bmax [2] was 3250, the EC50 [2] was 2.9 nM and the binding result (SARS-CoV spike (S)) was “no binding (tested: 13 nM)”. B15: no binding (tested: 13 nM) [3]; no binding (tested: 13 nM) [11].

B16: NRCoV2-MRed06 VHH-Fc (Fc fusion)
chain: EVQLVESGGGLVQAGGSLRLSCAASGFTLAYYAIGWFRQAPGKEREGVSCISSSDGSAHYADSVKGRFTISRDNAKNTVSLQMNSLKPEDTAVYYCATDSFSSCSDYESGMDFWGKGTQVTVSS
notes: bivalent
B16 was tested, and the EC50 [8] was 0.4 nM, the EC50 [9] was 0.59 nM and the EC50 [10] was 0.4 nM.

B17: NRCoV2-MRed04 VHH-Fc (Fc fusion)
chain: EVQLVESGGGLVQPGRSLRLSCAASGNSFSISTMGWFRQAPGKERELVASIWSDTTTSYADSVKGRFTISTDNTRTKVYLQMSSLNPEDTAVYYCAADRGFVVRGQYDYWGQGTQVTVSS
notes: bivalent VHH-Fc
For B17, the IC50 (Human SARS-CoV S) was 24.6 nM and the IC50 [1] was 5 nM.

B18: NRCoV2-SR04 VHH-Fc (Fc fusion)
chain: QVQLVESGGGLVQAGGSLRLSCAASGRTFSSHTVGWYRQAPGKQRDLVAAISMGGNTNYADYADSVKGRFTISRDNAKNTLYLQMNSLKPEDTAVYYCNTAALVGNRLLPMATITWGQGTQVTVSS
notes: bivalent VHH-Fc
For B18, the Bmax [2] was 10100, the EC50 [2] was 8.2 nM and the binding result (SARS-CoV spike (S)) was “no binding (tested: 13 nM)”. B18: no binding (tested: 13 nM) [4].

B19: NRCoV2-11 VHH-Fc (Fc fusion)
chain: EVQLVSSGGGLVQPGGSLRLSCAASGSSLDSYSVSWFRQAPGKEREWISFISRYYSSTYYTDSVKGRFTTSRDGDQKTVHLQMNSLKPEDTAVYYCAARSRDFSSPFSATDTYTSWGQGTQVTVSS
notes: bivalent VHH-Fc
Work on B19 yielded an IC50 (Human SARS-CoV S) of 7.7 nM and an IC50 [1] of 3.2 nM.

B20: NRCoV2-11 VHH (VHH)
VHH: B19 chain
B20 was tested, and the EC50 [12] was 0.2 nM.

B21: NRCoV2-S2B3 VHH-Fc (Fc fusion)
chain: QVQLVDSGGGLVQAGGSLRLSCAASASTFGDSAMGYYRQAPGKQRELVATISTGSNTNYADSVKGRFTISRDDAKNTVYLQMNSLKPEDTAVYYCNYRSIYYGQNFWGQGTQVTVSS
notes: bivalent VHH-Fc
In the case of B21, the Bmax [2] is reported as 6660, the EC50 [2] is reported as 6.5 nM and the binding result (SARS-CoV spike (S)) is reported as “no binding (tested: 13 nM)”.

B22: NRCoV2-SR03 VHH-Fc (Fc fusion)
chain: AVQLVDSGGGLVQAGGSLRLSCAASGSIFSNNHMGWYRQAPGKQRELVAAISSGGKTNYADFAKGRFTISRDNAKNMVYLQMNSLKPEDTAVYYCNRGGWEYRSSYYIMGPHWGQGTQVTVSS
notes: bivalent VHH-Fc
In the case of B22, the Bmax [2] is reported as 19900, the EC50 [2] is reported as 7.1 nM and the binding result (SARS-CoV spike (S)) is reported as “no binding (tested: 13 nM)”. B22: no binding (tested: 13 nM) [4].

From patent publication US20240270826A1 (NATIONAL RESEARCH COUNCIL OF CANADA, published 2024)
